According to paper PMC10354024, “Conformational trajectory of allosteric gating of the human cone photoreceptor cyclic nucleotide-gated channel” (Nature Communications, 2023):

Key:
human CNGB3, full-length = target: T1, human CNGB3, full-length (human, UniProt Q9NQW8-1 1-809, N339 glycosylation site); test: cryo-EM structure; full-length CNGA3/CNGB3 co-expressed and co-purified, in 0.02% GDN, 50 mM HEPES-Na pH 8.58, 150 mM NaCl, 0.1 mM TCEP, 2 mM EGTA, 2 mM cGMP; three states (closed, intermediate 1, intermediate 2), C1 symmetry; details: both partners purified
T1 construct: human cone photoreceptor cyclic nucleotide-gated channel subunit CNGB3, NCBI NP_061971.3, full length; modelled residues L206 to R643; One copy of this subunit stands with three CNGA3 in the channel tetramer; Cloned in the vector pEZT-BM (Addgene #74099); source: HEK 293S GnTi- cells (BacMam), co-infected with CNGA3 virus, purified (amylose resin, StrepTrap, Superose 6) in GDN
T1 sequence (looked up): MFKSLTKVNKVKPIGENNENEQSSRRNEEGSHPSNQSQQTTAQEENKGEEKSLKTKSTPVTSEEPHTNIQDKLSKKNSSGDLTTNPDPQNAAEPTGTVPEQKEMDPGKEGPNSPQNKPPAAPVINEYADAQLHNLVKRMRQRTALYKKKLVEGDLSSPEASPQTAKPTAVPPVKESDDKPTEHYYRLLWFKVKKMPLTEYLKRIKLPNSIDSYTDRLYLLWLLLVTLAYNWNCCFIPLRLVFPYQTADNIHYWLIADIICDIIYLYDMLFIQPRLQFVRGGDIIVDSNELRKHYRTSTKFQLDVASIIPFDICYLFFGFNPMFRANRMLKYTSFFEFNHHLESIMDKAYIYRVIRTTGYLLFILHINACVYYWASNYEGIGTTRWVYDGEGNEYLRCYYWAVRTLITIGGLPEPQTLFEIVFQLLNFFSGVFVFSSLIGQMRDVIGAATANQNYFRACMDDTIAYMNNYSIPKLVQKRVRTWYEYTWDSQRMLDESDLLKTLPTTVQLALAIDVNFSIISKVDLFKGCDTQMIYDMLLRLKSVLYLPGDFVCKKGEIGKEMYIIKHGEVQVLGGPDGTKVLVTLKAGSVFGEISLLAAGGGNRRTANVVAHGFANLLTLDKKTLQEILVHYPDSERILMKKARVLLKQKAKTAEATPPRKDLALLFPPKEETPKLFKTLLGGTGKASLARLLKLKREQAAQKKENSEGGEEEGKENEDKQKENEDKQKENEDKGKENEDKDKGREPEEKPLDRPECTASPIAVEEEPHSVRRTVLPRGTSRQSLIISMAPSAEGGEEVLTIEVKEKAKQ

[1] = target: the molecule itself; test: as above
[2] = target: the molecule itself; test: cryo-EM structure; truncated CNGA3/CNGB3 co-expressed (P2A) and co-purified, in POPG/POPC (1:1) nanodiscs with MSP2N2, 50 mM HEPES-Na pH 8.58, 150 mM NaCl, 0.1 mM TCEP, 2 mM EGTA, 4 mM cGMP; five states (closed, intermediate 1, intermediate 2, pre-open, open), C1 symmetry
[3] = target: T2, truncated human CNGB3 (amino acids 79-809) (human, UniProt Q9NQW8-1 79-809); test: as above; details: both partners purified
T2 construct: human CNGB3, NCBI NP_061971.3, amino acids 79-809 (amino acids 1-78 removed); Expressed as trunCNGA3-P2A-trunCNGB3 from one pEZT-BM vector; a residue of the P2A linker may precede the FLAG tag (surmised); also called truncated CNGB3; trunCNGB3
T2 sequence (looked up): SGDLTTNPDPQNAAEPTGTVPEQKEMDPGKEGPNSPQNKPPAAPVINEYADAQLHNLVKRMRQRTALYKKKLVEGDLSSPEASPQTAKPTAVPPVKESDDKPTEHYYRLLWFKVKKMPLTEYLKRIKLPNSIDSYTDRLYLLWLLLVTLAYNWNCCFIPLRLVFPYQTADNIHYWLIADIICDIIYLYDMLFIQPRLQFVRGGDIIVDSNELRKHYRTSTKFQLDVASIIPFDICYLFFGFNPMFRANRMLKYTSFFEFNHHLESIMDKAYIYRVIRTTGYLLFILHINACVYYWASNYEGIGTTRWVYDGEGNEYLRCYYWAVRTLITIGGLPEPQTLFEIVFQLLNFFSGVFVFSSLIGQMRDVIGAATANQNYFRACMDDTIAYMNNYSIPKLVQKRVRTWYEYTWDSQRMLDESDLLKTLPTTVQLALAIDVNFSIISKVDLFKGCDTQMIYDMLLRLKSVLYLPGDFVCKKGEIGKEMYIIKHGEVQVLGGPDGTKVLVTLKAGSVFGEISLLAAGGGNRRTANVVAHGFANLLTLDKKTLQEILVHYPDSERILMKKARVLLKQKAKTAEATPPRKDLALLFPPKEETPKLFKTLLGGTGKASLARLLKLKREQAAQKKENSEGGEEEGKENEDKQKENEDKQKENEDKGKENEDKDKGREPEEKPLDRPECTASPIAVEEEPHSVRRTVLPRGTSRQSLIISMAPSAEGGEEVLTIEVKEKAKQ

| Binder | stoichiometry N (human CNGB3, full-length) [A3 per B3] | binding result [1] | binding result [2] | binding result [3] |
| --- | --- | --- | --- | --- |
| human CNGA3, full-length (natural protein, UniProt Q16281-1 1-694, looked up, human cone photoreceptor cyclic nucleotide-gated channel subunit CNGA3, NCBI NP_001289.1, full length; modelled residues about A158-I159 to D609-L614; Three copies of this subunit stand with one CNGB3 in the channel tetramer; MBP was cut off with P3C protease; residues of the P3C site may remain at the N-terminus; Cloned in the vector pEZT-BM (Addgene #74099); also called CNGA3L; A3L; source: HEK …) MAKINTQYSHPSRTHLKVKTSDRDLNRAENGLSRAHSSSEETSSVLQPGIAMETRGLADSGQGSFTGQGIARLSRLIFLLRRWAARHVHHQDQGPDSFPDRFRGAELKEVSSQESNAQANVGSQEPADRGRSAWPLAKCNTNTSNNTEEEKKTKKKDAIVVDPSSNLYYRWLTAIALPVFYNWYLLICRACFDELQSEYLMLWLVLDYSADVLYVLDVLVRARTGFLEQGLMVSDTNRLWQHYKTTTQFKLDVLSLVPTDLAYLKVGTNYPEVRFNRLLKFSRLFEFFDRTETRTNYPNMFRIGNLVLYILIIIHWNACIYFAISKFIGFGTDSWVYPNISIPEHGRLSRKYIYSLYWSTLTLTTIGETPPPVKDEEYLFVVVDFLVGVLIFATIVGNVGSMISNMNASRAEFQAKIDSIKQYMQFRKVTKDLETRVIRWFDYLWANKKTVDEKEVLKSLPDKLKAEIAINVHLDTLKKVRIFQDCEAGLLVELVLKLRPTVFSPGDYICKKGDIGKEMYIINEGKLAVVADDGVTQFVVLSDGSYFGEISILNIKGSKSGNRRTANIRSIGYSDLFCLSKDDLMEALTEYPEAKKALEEKGRQILMKDNLIDEELARAGADPKDLEEKVEQLGSSLDTLQTRFARLLAEYNATQMKMKQRLSQLESQVKGGGDKPLADGEVPGDATKTEDKQQ | 3 | binds |  |  |
| truncated human CNGA3 (amino acids 152-694) (domain or fragment, UniProt Q16281-1 152-694, looked up, human CNGA3, NCBI NP_001289.1, amino acids 152-694 (amino acids 1-151 removed); Expressed as trunCNGA3-P2A-trunCNGB3 from one pEZT-BM vector; also called truncated CNGA3; trunCNGA3) KTKKKDAIVVDPSSNLYYRWLTAIALPVFYNWYLLICRACFDELQSEYLMLWLVLDYSADVLYVLDVLVRARTGFLEQGLMVSDTNRLWQHYKTTTQFKLDVLSLVPTDLAYLKVGTNYPEVRFNRLLKFSRLFEFFDRTETRTNYPNMFRIGNLVLYILIIIHWNACIYFAISKFIGFGTDSWVYPNISIPEHGRLSRKYIYSLYWSTLTLTTIGETPPPVKDEEYLFVVVDFLVGVLIFATIVGNVGSMISNMNASRAEFQAKIDSIKQYMQFRKVTKDLETRVIRWFDYLWANKKTVDEKEVLKSLPDKLKAEIAINVHLDTLKKVRIFQDCEAGLLVELVLKLRPTVFSPGDYICKKGDIGKEMYIINEGKLAVVADDGVTQFVVLSDGSYFGEISILNIKGSKSGNRRTANIRSIGYSDLFCLSKDDLMEALTEYPEAKKALEEKGRQILMKDNLIDEELARAGADPKDLEEKVEQLGSSLDTLQTRFARLLAEYNATQMKMKQRLSQLESQVKGGGDKPLADGEVPGDATKTEDKQQ |  |  | binds | binds |
